# Experimental data from the RNAGym collection of RNA variant scans (doi:10.7554/elife.80360).
# B1: HDV Ribozyme (parent)
# chain: GGCCGGCAUGGUCCCAGCCUCCUCGCUGGCGCCGGCUGGGCAACAUUCCGAGGGGACCGUCCCCUCGGUAAUGGCGAAUGGGACCCA
# Variants of: B1
# Assay: self-cleavage, relative activity (ratio to wild type); higher = more cleavage; co-transcriptional
row,Variant,self-cleavage
1,G17C G54U,0.256
2,C21U C85U,0.511
3,C7U A78C,0.0923
4,U46G U65C,0.615
5,U23C C86A,0.857
6,C24U G73C,0.0773
7,C49U C58G,1.01
8,G5C C63A,0.383
9,C33U A71G,0.886
10,U27G G53C,1.01
11,G34C C49U,0.208
12,G1C C36U,0.394
13,C30G G74C,0.108
14,C14A C22G,0.0573
15,G10U G40U,0.842
16,G28C C85U,0
17,U47C A70C,0.739
18,G2A G34C,0.0489
19,G29A U47G,0.0978
20,C4U C66U,0.704
21,C21A G38C,0.185
22,U20G G35U,0
23,U27A A42G,0.361
24,C19G U69G,0.102

row,Variant,self-cleavage
1,A42G U69G,0.554
2,G50A C86A,0.931
3,C49A G54A,0.589
4,G25U U47G,0.0692
5,G40C U72G,0.158
6,C3A G28A,0.0138
7,G80C C86A,0.213
8,G1A U12G,0.554
9,C36G C41U,0.199
10,G68A G73C,0.257
11,C14U G25C,0.199
12,G54U G80A,0.257
13,A8G G53C,1.03
14,G2U U60C,0.0287
15,C21G G35A,0.0817
16,U9G C32G,0.317
17,A45U C85G,0.847
18,A42C G52C,0.359
19,C14G C61G,0.782
20,C36U A78G,0.128
21,G2C G59A,0.0193
22,C41A A77G,0.628
23,G6U C48U,0.696
24,C22G C33A,0

row,Variant,self-cleavage
1,G10C A70G,0.516
2,G52C G54U,0.513
3,C30G G54U,0.148
4,G28C G52A,0.119
5,C3A A45U,0.269
6,A16C C32U,0.332
7,G67A A78G,0.604
8,U60A C66U,1.12
9,G34A U37C,0.102
10,C13A C64A,0.264
11,U9G G50A,1.18
12,U47C G76A,0.787
13,A43U G73U,0.141
14,G68C C75U,0.272
15,G2U G35A,0.0308
16,A42U C64U,0.594
17,A8G A51G,1.16
18,C13U A78G,0.178
19,U23A G35C,0.212
20,G25C G81C,0.0449
21,C4G G73A,0.156
22,G35A G55C,0.358
23,A8U A42C,0.0692
24,G29A C64G,0.202

row,Variant,self-cleavage
1,A71U C75A,0.0739
2,G5U C85G,0.289
3,A77G A87G,0.966
4,C3G C19A,0.0594
5,G28C A51U,0.156
6,U12C A71U,0.453
7,C4A U72C,0.111
8,G5C C41A,0.0665
9,G6C G55A,0.16
10,G25A A87G,0.163
11,G2U A16U,0.0237
12,A8G C18A,0.0875
13,G6A G55A,0.712
14,G34A G82U,0.129
15,C24U C26U,0.867
16,U9C U72C,0.485
17,U46G U79C,0.0519
18,G1A G73A,0.128
19,U20G A87U,0.158
20,C7U C62A,0.764
21,C24A A56C,0.966
22,G29A G34A,0.131
23,A8G G82C,0.128
24,G10A C63U,0.655

row,Variant,self-cleavage
1,C19U G52A,0.137
2,G50A G52U,0.688
3,C33A U47C,0.0692
4,G6U G82A,0.0875
5,U27C G52C,0.764
6,G11C C18G,0
7,C7G G50C,0.138
8,G55A G59C,1.06
9,G35C G59A,0.256
10,C7U G68U,0.764
11,G29C C48A,0
12,G2A C30A,0.0152
13,C14A U23C,0.997
14,G28C C58A,0.166
15,C26A C75G,0
16,G17A U46C,0.506
17,G35U G54C,0.517
18,C49U C58A,1.02
19,U20C U79C,0.0845
20,G6U C18G,0
21,U9G C62A,1.14
22,G38U G67U,0.166
23,C33U G50C,0.786
24,A43C A77U,0

row,Variant,self-cleavage
1,G5A A51C,0.312
2,A45G G81A,0.435
3,C18G U65G,0.115
4,C24U C41U,0.616
5,C22G G29C,0.0536
6,U27G G34A,0.415
7,G35C U60G,0.353
8,G28C G76U,0.0378
9,C13U A70G,0.475
10,C64U A71U,1.12
11,C18U U60G,0.633
12,G6U U47G,0.554
13,U47A C61U,0.814
14,G53U U60A,0.997
15,C13G C58A,0
16,C15U U37G,0.158
17,C7U U69C,0.853
18,U20A G52C,0.0449
19,G25A G73C,0.113
20,A42G C64G,0.332
21,C24U C75A,0.0639
22,A16G G50A,1.4
23,C30G U47A,0.0354
24,G52A U60G,0.897

row,Variant,self-cleavage
1,C4A C66U,0.361
2,C49A G74U,0.415
3,G50A C66U,0.989
4,G40A A70C,0.849
5,U20A A45U,0
6,A42G C62G,0.469
7,G1U C84G,0.297
8,G52A A56C,1.11
9,C62U U65C,0.988
10,C3U C19A,0.0573
11,G68U G81C,0.223
12,G34C G39U,0.156
13,G74U U79A,0.268
14,C18A U65C,0.101
15,G34A C58U,0.122
16,G82A C84U,0.215
17,C26A C41G,0.883
18,U47C G50A,0.749
19,C4U G76U,0.831
20,G2A G39A,0.0171
21,G35C A42C,0.107
22,G52C A78U,0.315
23,G5A G10U,0.188
